# Reference: the supplement of paper PMC10065799, “High-throughput profiling of sequence recognition by tyrosine kinases and SH2 domains using bacterial peptide display” (eLife, 2023)
# System: AncSZ
# Test: phosphorylation enrichment, bacterial display (enrichment ratio); higher = better substrate or ligand; peptides without Tyr show the background
# 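Further: 11-residue human phosphosite peptides and single-mutation variants displayed on the E. coli surface, counted by deep sequencing, each peptide's frequency after selection divided by its frequency in the unselected input library; frequency after pTyr selection over input frequency; kinase dosed for 20-30% of maximal phosphorylation in three min.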
row,Sequence,phosphorylation enrichment
1,TYACSYTPVKA [FLNB_Y708],0.991
2,FASAEYQEALS [GALNS_Y461],0.949
3,DGQFVYKLTDF [TBK1_Y153_S151F],1.06
4,MAHDRYAAICS [OR8H2_Y123],0.547
5,IYRASYYRKGG [ALK_Y1282],0.615
6,GGYTRYCDGKK [PROS1_Y266_C265R],0.649
7,PLKALYLQQRL [ATM_Y2969_P2974L],0.776
8,KSEMSCIDGEK [SORBS1_Y485_Y485C],0.862
9,EEQKKYSNAMK [SCN5A_Y1494_Y1495S],0.611
10,NPPGMHPVTGP [LPP_Y346_Y346H],0.534
11,DKWFLYKMRDI [CPS1_Y879],1.14
12,GESSGYLRLAF [MEP1A_Y481_R476G],0.964
13,SFIGQYSGKKE [L1CAM_Y1229],0.735
14,DYCDLYGGEKF [PTPN11_Y66_Y63C],1.72
15,WFPFTYVEEDE [VAV3_Y842_S840Y_YF],1.19
16,KLNNEHLELNF [MME_Y497_Y497H_YF],0.88
17,SSDPDYLAAVD [GLB1_Y154],1.34

row,Sequence,phosphorylation enrichment
1,RSYSPYDYQPC [TNS1_Y796],1.52
2,PQGVSYIFTID [DCX_Y103_R102S_YF],0.94
3,SVMAEYGLYRA [VSX2_Y219_G223R],0.951
4,SASWTYVRWFD [PTDSS1_Y274_P269S],1.08
5,GDEEDYYEIPG [EGFR_opt_no-pY_2015],3.2
6,AEDEDYESVGA [SYKtide_2014],1.29
7,TLSGIYQYIIA [FOXL2_Y81],1.54
8,PGVNFYFRVSA,1.73
9,AVLVQYFMEHH [PTPN11_Y80_E76V_YF],0.934
10,EVQKNYEHLFK [PAM16_Y77],0.706
11,GVLKEYGGKVL [CPS1_Y529_V531G],0.588
12,AVDVTYDGHPV [FLNB_Y1020],1.11
13,ITRDIYETDYY [INSR_Y1185_M1180I],2.67
14,EAEALYQTTFQ [KRT73_Y325_K328T],1.98
15,LCRFGYANTSE [SI_Y1233_YF],0.756
16,NESVDSRATFP [MET_Y1003_Y1003S],0.783

# System: Fer (mouse)
# Test: as above
row,Sequence,phosphorylation enrichment
1,TYACSYTPVKA [FLNB_Y708],0.78
2,FASAEYQEALS [GALNS_Y461],0.369
3,DGQFVYKLTDF [TBK1_Y153_S151F],0.739
4,MAHDRYAAICS [OR8H2_Y123],0.372
5,IYRASYYRKGG [ALK_Y1282],0.45
6,GGYTRYCDGKK [PROS1_Y266_C265R],0.357
7,PLKALYLQQRL [ATM_Y2969_P2974L],0.398
8,KSEMSCIDGEK [SORBS1_Y485_Y485C],0.44
9,EEQKKYSNAMK [SCN5A_Y1494_Y1495S],0.353
10,NPPGMHPVTGP [LPP_Y346_Y346H],0.286
11,DKWFLYKMRDI [CPS1_Y879],0.505
12,GESSGYLRLAF [MEP1A_Y481_R476G],0.507
13,SFIGQYSGKKE [L1CAM_Y1229],0.372
14,DYCDLYGGEKF [PTPN11_Y66_Y63C],0.967
15,WFPFTYVEEDE [VAV3_Y842_S840Y_YF],0.547
16,KLNNEHLELNF [MME_Y497_Y497H_YF],0.423
17,SSDPDYLAAVD [GLB1_Y154],0.604

row,Sequence,phosphorylation enrichment
1,RSYSPYDYQPC [TNS1_Y796],0.894
2,PQGVSYIFTID [DCX_Y103_R102S_YF],0.495
3,SVMAEYGLYRA [VSX2_Y219_G223R],0.512
4,SASWTYVRWFD [PTDSS1_Y274_P269S],0.487
5,GDEEDYYEIPG [EGFR_opt_no-pY_2015],2.82
6,AEDEDYESVGA [SYKtide_2014],0.655
7,TLSGIYQYIIA [FOXL2_Y81],13.9
8,PGVNFYFRVSA,0.708
9,AVLVQYFMEHH [PTPN11_Y80_E76V_YF],0.484
10,EVQKNYEHLFK [PAM16_Y77],0.436
11,GVLKEYGGKVL [CPS1_Y529_V531G],0.354
12,AVDVTYDGHPV [FLNB_Y1020],0.925
13,ITRDIYETDYY [INSR_Y1185_M1180I],0.72
14,EAEALYQTTFQ [KRT73_Y325_K328T],11.9
15,LCRFGYANTSE [SI_Y1233_YF],0.381
16,NESVDSRATFP [MET_Y1003_Y1003S],0.376

# Target: EPHB2 (UniProt P29323)
# Sequence (P29323 whole entry, looked up): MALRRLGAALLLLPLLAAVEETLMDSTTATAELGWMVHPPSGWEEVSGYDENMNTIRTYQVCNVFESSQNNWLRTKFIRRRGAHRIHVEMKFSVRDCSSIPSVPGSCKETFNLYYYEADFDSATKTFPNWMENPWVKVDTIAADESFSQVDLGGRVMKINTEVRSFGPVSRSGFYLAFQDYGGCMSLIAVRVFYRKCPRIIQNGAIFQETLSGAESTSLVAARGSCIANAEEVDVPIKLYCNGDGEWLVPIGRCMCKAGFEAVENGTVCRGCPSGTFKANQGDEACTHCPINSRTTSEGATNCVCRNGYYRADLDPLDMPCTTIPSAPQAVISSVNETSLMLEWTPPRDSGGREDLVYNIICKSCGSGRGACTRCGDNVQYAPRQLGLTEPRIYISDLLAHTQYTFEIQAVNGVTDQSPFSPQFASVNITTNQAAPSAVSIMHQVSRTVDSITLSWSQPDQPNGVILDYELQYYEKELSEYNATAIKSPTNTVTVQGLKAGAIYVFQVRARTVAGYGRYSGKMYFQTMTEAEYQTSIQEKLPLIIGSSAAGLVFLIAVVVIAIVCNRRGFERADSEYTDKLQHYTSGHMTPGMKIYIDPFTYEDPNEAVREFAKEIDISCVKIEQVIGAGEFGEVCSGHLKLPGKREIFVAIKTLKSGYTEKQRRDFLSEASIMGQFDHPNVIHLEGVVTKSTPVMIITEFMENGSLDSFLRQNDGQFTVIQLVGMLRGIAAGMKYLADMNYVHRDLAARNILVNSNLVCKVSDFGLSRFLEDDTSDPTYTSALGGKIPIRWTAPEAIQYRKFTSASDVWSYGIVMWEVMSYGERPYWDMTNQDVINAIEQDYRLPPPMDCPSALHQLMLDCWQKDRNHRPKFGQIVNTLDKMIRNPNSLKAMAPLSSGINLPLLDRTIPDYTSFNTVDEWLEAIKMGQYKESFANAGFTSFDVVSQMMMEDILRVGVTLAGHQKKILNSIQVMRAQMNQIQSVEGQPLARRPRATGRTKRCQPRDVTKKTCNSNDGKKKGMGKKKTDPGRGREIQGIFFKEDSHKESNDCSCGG
# Test: as above
row,Sequence,phosphorylation enrichment
1,TYACSYTPVKA [FLNB_Y708],0.868
2,FASAEYQEALS [GALNS_Y461],0.466
3,DGQFVYKLTDF [TBK1_Y153_S151F],0.587
4,MAHDRYAAICS [OR8H2_Y123],0.444
5,IYRASYYRKGG [ALK_Y1282],0.481
6,GGYTRYCDGKK [PROS1_Y266_C265R],0.386
7,PLKALYLQQRL [ATM_Y2969_P2974L],0.629
8,KSEMSCIDGEK [SORBS1_Y485_Y485C],0.567
9,EEQKKYSNAMK [SCN5A_Y1494_Y1495S],0.539
10,NPPGMHPVTGP [LPP_Y346_Y346H],0.332
11,DKWFLYKMRDI [CPS1_Y879],0.57
12,GESSGYLRLAF [MEP1A_Y481_R476G],0.49
13,SFIGQYSGKKE [L1CAM_Y1229],0.413
14,DYCDLYGGEKF [PTPN11_Y66_Y63C],2.14
15,WFPFTYVEEDE [VAV3_Y842_S840Y_YF],0.473
16,KLNNEHLELNF [MME_Y497_Y497H_YF],0.466
17,SSDPDYLAAVD [GLB1_Y154],0.74

row,Sequence,phosphorylation enrichment
1,RSYSPYDYQPC [TNS1_Y796],2.31
2,PQGVSYIFTID [DCX_Y103_R102S_YF],0.692
3,SVMAEYGLYRA [VSX2_Y219_G223R],1.28
4,SASWTYVRWFD [PTDSS1_Y274_P269S],0.766
5,GDEEDYYEIPG [EGFR_opt_no-pY_2015],1.26
6,AEDEDYESVGA [SYKtide_2014],0.672
7,TLSGIYQYIIA [FOXL2_Y81],12.2
8,PGVNFYFRVSA,0.759
9,AVLVQYFMEHH [PTPN11_Y80_E76V_YF],0.613
10,EVQKNYEHLFK [PAM16_Y77],0.479
11,GVLKEYGGKVL [CPS1_Y529_V531G],0.343
12,AVDVTYDGHPV [FLNB_Y1020],3.74
13,ITRDIYETDYY [INSR_Y1185_M1180I],1.55
14,EAEALYQTTFQ [KRT73_Y325_K328T],1.53
15,LCRFGYANTSE [SI_Y1233_YF],0.529
16,NESVDSRATFP [MET_Y1003_Y1003S],0.597

# System: c-Abl (mouse)
# Test: as above
row,Sequence,phosphorylation enrichment
1,TYACSYTPVKA [FLNB_Y708],1.78
2,FASAEYQEALS [GALNS_Y461],0.505
3,DGQFVYKLTDF [TBK1_Y153_S151F],0.482
4,MAHDRYAAICS [OR8H2_Y123],0.396
5,IYRASYYRKGG [ALK_Y1282],0.676
6,GGYTRYCDGKK [PROS1_Y266_C265R],0.528
7,PLKALYLQQRL [ATM_Y2969_P2974L],0.722
8,KSEMSCIDGEK [SORBS1_Y485_Y485C],0.793
9,EEQKKYSNAMK [SCN5A_Y1494_Y1495S],0.772
10,NPPGMHPVTGP [LPP_Y346_Y346H],0.997
11,DKWFLYKMRDI [CPS1_Y879],0.963
12,GESSGYLRLAF [MEP1A_Y481_R476G],0.752
13,SFIGQYSGKKE [L1CAM_Y1229],0.609
14,DYCDLYGGEKF [PTPN11_Y66_Y63C],0.747
15,WFPFTYVEEDE [VAV3_Y842_S840Y_YF],0.655
16,KLNNEHLELNF [MME_Y497_Y497H_YF],0.805
17,SSDPDYLAAVD [GLB1_Y154],0.814

row,Sequence,phosphorylation enrichment
1,RSYSPYDYQPC [TNS1_Y796],0.668
2,PQGVSYIFTID [DCX_Y103_R102S_YF],0.812
3,SVMAEYGLYRA [VSX2_Y219_G223R],0.945
4,SASWTYVRWFD [PTDSS1_Y274_P269S],0.905
5,GDEEDYYEIPG [EGFR_opt_no-pY_2015],0.968
6,AEDEDYESVGA [SYKtide_2014],0.938
7,TLSGIYQYIIA [FOXL2_Y81],4.23
8,PGVNFYFRVSA,1.37
9,AVLVQYFMEHH [PTPN11_Y80_E76V_YF],0.638
10,EVQKNYEHLFK [PAM16_Y77],0.632
11,GVLKEYGGKVL [CPS1_Y529_V531G],0.546
12,AVDVTYDGHPV [FLNB_Y1020],0.705
13,ITRDIYETDYY [INSR_Y1185_M1180I],0.722
14,EAEALYQTTFQ [KRT73_Y325_K328T],2.1
15,LCRFGYANTSE [SI_Y1233_YF],0.625
16,NESVDSRATFP [MET_Y1003_Y1003S],0.661
